Results on one molecule are retold here after patent US20190002886A1, “SIGNALING CENTERS OF ERYTHROID DIFFERENTIATION” (THE CHILDREN'S MEDICAL CENTER CORPORATION, priority 2017, published 2019).

The test has as its system human CD34+ cells. Nature of the test: FACS analysis of erythroid markers CD71 and CD235a on differentiating CD34+ cells. The class given is cell-based. The settings on record: 25 ng/ml hrBMP4, treated for two days starting from D3 of differentiation. Here is the method: To establish the role of BMP signaling in erythroid differentiation, differentiating CD34^+ cells were treated with human recombinant BMP4 (hrBMP4) to activate the pathway, or with dorsomorphin, a known inhibitor of BMP signaling. Knowing that erythroid lineage commitment occurs around D3, differentiating cells were treated for two days starting from D3, to test the effects of these signals on erythrocyte commitment. […] Human CD34+ cells, isolated from peripheral blood of granulocyte colony-stimulating factor-mobilized healthy volunteers, were obtained from the Fred Hutchinson Cancer Research Center. The cells were maintained and differentiated as previously described (Sankaran et al., 2008b; Trompouki et al.,2011). Control and treated stage-matched CD34 cells were washed in PBS and stained with propidium iodide (PI), 1:60 APC-conjugated CD235a (eBioscience, clone HIR2, 17-9987-42), 1:60 FITC-conjugated CD71 (eBioscience, OKT9, 11-0719-42), 1:60 PE-conjugated CD41a (eBioscience, HIP8, 12-0419-42) and 1:60 PE-conjugated CD11b (eBioscience, ICRF44, 12-0118-42). BD Bioscience LSR II flow cytometer was used to record raw FACS data, which were analyzed subsequently using FlowJo 8.6.9 10.0.7 (TreeStar). Human CD34^+ cells, isolated from peripheral blood of granulocyte colony-stimulating factor mobilized healthy volunteers, were purchased from the Fred Hutchinson Cancer Research Center. […]

B1: BMP4: human recombinant BMP4 (R&D) used to activate the BMP pathway (protein)
chain: MIPGNRMLMVVLLCQVLLGGASHASLIPETGKKKVAEIQGHAGGRRSGQSHELLRDFEATLLQMFGLRRRPQPSKSAVIPDYMRDLYRLQSGEEEEEQIHSTGLEYPERPASRANTVRSFHHEEHLENIPGTSENSAFRFLFNLSSIPENEVISSAELRLFREQVDQGPDWERGFHRINIYEVMKPPAEVVPGHLITRLLDTRLVHHNVTRWETFDVSPAVLRWTREKQPNYGLAIEVTHLHQTRTHQGQHVRISRSLPQGSGNWAQLRPLLVTFGHDGRGHALTRRRRAKRSPKHHSQRARKKNKNCRRHSLYVDFSDVGWNDWIVAPPGYQAFYCHGDCPFPLADHLNSTNHAIVQTLVNSVNSSIPKACCVPTELSAISMLYLDEYDKVVLKNYQEMVVEGCGCR
Take B1: the “increase in erythroid cell counts (CD71 and CD235a)” value is on record as 1.5-2 fold.
